Source: patent US20210095265A1 (WISCONSIN ALUMNI RESEARCH FOUNDATION, published 2021)
Where a chain is given by its changes, count along the chain named. Numbers in names are those of the source. Each block holds one binder with its values, some of them ahead of it.

Columns and labels:
[1] = molecular target: T1, Saro_2873 polypeptide made by cell-free synthesis in its native form
T1 chain: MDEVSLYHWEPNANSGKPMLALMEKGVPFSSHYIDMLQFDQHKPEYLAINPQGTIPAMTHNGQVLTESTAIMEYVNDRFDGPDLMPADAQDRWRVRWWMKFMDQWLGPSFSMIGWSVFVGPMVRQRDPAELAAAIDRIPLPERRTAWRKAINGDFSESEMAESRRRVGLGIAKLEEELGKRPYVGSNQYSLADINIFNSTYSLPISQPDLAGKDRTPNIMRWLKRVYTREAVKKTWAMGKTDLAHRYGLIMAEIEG

[2] = molecular target: T2, Saro_2873 S15A (subunit of BaeA variants 3:S15A and 2:S14A/3:S15A) (Novosphingobium aromaticivorans); experiment: gel permeation chromatography
T2 chain: T1 chain with S15A

[3] = molecular target: T3, Saro_2873 N14A (subunit of BaeA variant 3:N14A) (Novosphingobium aromaticivorans); experiment: gel permeation chromatography
T3 construct: This subunit is untagged; the tag is on Saro_2872
T3 chain: T1 chain with N14A

[4] = molecular target: T4, Saro_2873 polypeptide from Novosphingobium aromaticivorans (subunit of BaeA), co-expressed with Saro_2872 in … (Novosphingobium aromaticivorans); experiment: gel permeation chromatography
T4 construct: Co-expressed with Saro_2872; also called Saro_2873 subunit; second polypeptide of BaeA
T4 chain: T1 chain

[5] = molecular target: the molecule itself; experiment: X-ray crystal structures (pdb 5uuo, 5uun); two copies of the protein per asymmetric unit
Description: Diffraction data were obtained at the GM/CA beam-line at Argonne National Laboratory with an Eiger 16M detector (Casanas et al. 2016). Data were collected on the ammonium acetate and ammonium sulfate crystal forms using 1.033 Å (for 1.45 Å resolution) or 0.7749 Å (for 1.25 Å resolution) X-rays, respectively. Diffraction data were reduced using XDS (Kabsch 2010). Both crystals belonged to space group P2₁2₁2₁ with a predicted solvent content of 60%. The structure was solved by molecular replacement with Phaser (McCoy et al. 2007) in the Phenix suite (Adams et al. 2010), using a search model based on PDB ID 3C8E:A (ecYghU (Stourman et al. 2011)) modified with phenix.sculptor (Bunkóczi et al. 2011), based on primary sequence alignment. […] Phenix.refine (Afonine et al. 2012) and COOT (Emsley et al. 2004) were alternatively used to refine the structure and fit the model to electron density maps.

binding result [2]: binds
binding result [3]: binds
B1: Saro_2872 polypeptide from Novosphingobium aromaticivorans (subunit of BaeA), co-expressed with Saro_2873 in E. coli (enzyme)
chain: MSALLYHGEPNGASLTVLAALAETGLDIECRRIDLLAGERHSLPGIVDPVALDLSIEGEGPVLVIDGEAMTESVFLAQYLDEAAGGVGLQPTDAYARWEMMMWCRQITERLSPAAALLGNLATSQSAIAAIPAEDFAILAARIVSDDLRERWQALNDDAVNAAQVADSETKVAAAVDRCEKQLGDGREWLMGTFSIADLVTYSWLAGMEPLRPAAFADAPLVKAWLARTAARPCVQAALARATISEPLRAWAPGPEINRWG
notes: Co-expressed with Saro_2873 from one pVP302K vector; In the H2872 construct Saro_2872 lacks its native start codon; also called Saro_2872 subunit; first polypeptide of BaeA
conversion of racemic MPHPV into GS-HPV and guaiacol (HPLC) [1]: half of the MPHPV was converted into GS-HPV and guaiacol

binding result [4]: binds
binding result [2]: binds
B2: Saro_2872 S14A (subunit of BaeA variants 2:S14A and 2:S14A/3:S15A) (enzyme)
chain: B1 chain with S14A
notes: The N-terminal His8-tag and Tev site are on this subunit, and its native start codon is missing; also called H2872(S14A)

B3: recombinant NaGSTNu (Nu-class glutathione-S-transferase of Novosphingobium aromaticivorans DSM 12444, Saro_2595), one subunit (enzyme)
chain: SAIAGMSSEYVPPKVWKWDKANGGAFASVNRPVAGPTSERELPVGKHPFQVYSLGTPNGQKATIMLEELLQLGFSEAEYDAWLIKIFEGDQFTSGFVDINPNSKIPAMVDRSGPEPFRVFESGAILMHLAEKFGVFLPTSGPARAECLSWLFWQVGSAPFIGGGFGHFYNYAPIKIEYAIDRYAMETKRLFDVANRRLAESRYLAGDEYTIADLATYTWFGNIYRGEAYGEAATFLSMHEYEHVGRWVGEIDARPGVLRGRLVNSSKGLAERHDASDFDALPPESLQAIVKGF
notes: also called Saro_2595 product; pdb 5uuo
binding result [5]: binds
